Experimental findings from US20120278951A1 (AGRESEARCH, published 2012) are described below.

Positions count from the first letter of the chain named.

Series [1] deals with the molecule itself. Put plainly: self-association (dimer) seen by SDS-PAGE/immunoblot; almost completely disrupted by SDS plus urea. For orientation: A western blot detects proteins with antibodies after separation by electrophoresis.
Series [2] concerns the molecule itself. Put plainly: self-association seen by SDS and SDS-UREA PAGE/immunoblot; on artificial oil bodies with GSSG also trimeric, tetrameric and likely pentameric disulfide cross-linked oligomers.
Series [3] deals with the molecule itself. Description: disulfide cross-linked oligomers seen by non-reducing SDS-PAGE/immunoblot of artificial oil bodies.
Series [4] concerns the molecule itself. Put plainly: self-association / disulfide cross-linking seen by SDS and SDS-UREA PAGE/immunoblot of inclusion bodies and artificial oil bodies.

B1: Oleosin disulfide 0,0 (sesame seed oleosin without engineered cysteines), E. coli expressed from pET29b (other)
chain: MKETAAAKFERQHMDSPDLGTLVPRGSMAEHYGQQQQTRAPHLQLQPRAQRVVKAATAVTAGGSLLVLSGLTLAGTVIALTIATPLLVIFSPVLVPAVITIFLLGAGFLASGGFGVAALSVLSWIYRYLTGKHPPGADQLESAKTKLASKAREMKDRAEQFSQQPVPWLISDPNSSSVDKLAAALEHHHHHHH
notes: Purified from E. coli inclusion bodies; also called Ole-0-0; Oleosin-0-0
On to B1, for which the binding result in series [1] is on record as “binds”.

B2: Oleosin disulfide 1,1 (sesame seed oleosin with one engineered cysteine in each hydrophilic arm), E. coli expressed from pET29b (other)
chain: MKETAAAKFERQHMDSPDLGTLVPRGSMACHYGQQQQTRAPHLQLQPRAQRVVKAATAVTAGGSLLVLSGLTLAGTVIALTIATPLLVIFSPVLVPAVITIFLLGAGFLASGGFGVAALSVLSWIYRYLTGKHPPGADQLESAKTKLASKAREMKDRAEQFSCQPVPWLEHHHHHH
notes: also called Ole-1-1; Oleosin-1-1
With B2, the binding result in series [2] is on record as “binds”.

B3: Oleosin disulfide 3,1 (sesame seed oleosin with three N-terminal and one C-terminal engineered cysteines), E. coli expressed from pET29b (other)
chain: B2 chain with R39C, Q50C
notes: also called Ole-3-1; Oleosin-3-1
For B3, the binding result in series [3] is recorded as “binds”.

B4: Oleosin disulfide 3,3 (sesame seed oleosin with three engineered cysteines in each hydrophilic arm), E. coli expressed from pET29b (other)
chain: B2 chain with R39C, Q50C, Q139C, K150C
notes: also called Ole-3-3; Oleosin-3-3
Turning to B4, the binding result in series [4] was “binds”.

B5: Oleosin disulfide 1,3 (sesame seed oleosin with one N-terminal and three C-terminal engineered cysteines), E. coli expressed from pET29b (other)
chain: B2 chain with Q139C, K150C
notes: also called Ole-1-3; Oleosin-1-3
Regarding B5, in series [3], the binding result is on record as “binds”.
